Patent US20110064740A1

Experiments:
[1] = target: Cell-surface full length amyloid precursor protein (APP) on HEK293T cells transfected with wild type APP DNA (UniProt P05067); assay: FMAT ABI8200, HEK293T cells transfected with wild type APP, mock subtracted; Experiment 2
[2] = target: Cell-surface full length amyloid precursor protein (APP) on HEK293T cells transfected with wild type APP DNA (UniProt P05067); assay: FMAT ABI8200, HEK293T cells transfected with wild type APP, mock subtracted; Experiment 1

Chain of Cell-surface full length amyloid precursor protein (APP) on HEK293T cells transfected with wild type APP DNA (P05067 18-770): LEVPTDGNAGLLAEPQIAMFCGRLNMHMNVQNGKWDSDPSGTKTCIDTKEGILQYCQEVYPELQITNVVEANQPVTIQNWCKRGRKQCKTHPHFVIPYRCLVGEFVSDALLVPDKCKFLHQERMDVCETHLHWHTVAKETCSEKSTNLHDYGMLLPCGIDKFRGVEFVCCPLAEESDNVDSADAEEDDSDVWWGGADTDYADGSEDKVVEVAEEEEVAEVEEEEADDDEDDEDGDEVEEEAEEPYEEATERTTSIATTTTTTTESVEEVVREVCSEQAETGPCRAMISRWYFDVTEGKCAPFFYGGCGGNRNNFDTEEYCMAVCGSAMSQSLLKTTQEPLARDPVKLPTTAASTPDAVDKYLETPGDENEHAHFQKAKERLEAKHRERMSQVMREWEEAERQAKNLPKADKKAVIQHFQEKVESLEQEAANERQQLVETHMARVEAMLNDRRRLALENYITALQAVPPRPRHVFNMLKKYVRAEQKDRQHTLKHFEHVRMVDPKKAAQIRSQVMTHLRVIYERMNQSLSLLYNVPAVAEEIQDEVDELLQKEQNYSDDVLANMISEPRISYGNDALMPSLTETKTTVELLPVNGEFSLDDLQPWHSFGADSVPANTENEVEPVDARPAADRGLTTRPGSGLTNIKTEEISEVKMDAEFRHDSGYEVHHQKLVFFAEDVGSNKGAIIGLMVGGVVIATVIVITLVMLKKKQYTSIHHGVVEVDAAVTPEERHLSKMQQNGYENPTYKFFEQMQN

B1: Mouse monoclonal antibody 2E7 (antibody, mouse IgG2a, V domains shown)
VH: EVKLVESGGGLVQPGGSLKLSCAVSGFTFSDNGMAWVRQAPRKGPEWIAFISNLAYSIDYADTVTGRFTISRDNAKNTLYLEMSSLRSEDTAMYYCVSGTWFAYWGQGTLVTVSA
VL: DVVLTQTPLSLPVSLGDQASISCRVSQSLLHSNGYTYLHWYLQKPGQSPKLLIYKVSNRFSGVPDRFSGSGSGTDFTLKISRVEAEDLGVYFCSQTRHVPYTFGGGTKLEIK
[1]
  % of LN27 binding: 2.2%
[2]
  % of LN27 binding: 9.9%
